Assay results published in the supplement of paper PMC10065799, “High-throughput profiling of sequence recognition by tyrosine kinases and SH2 domains using bacterial peptide display” (eLife, 2023).

How the values were obtained:
Grb2 SH2 = Grb2 SH2 (UniProt P62993); assay: SH2 binding enrichment of the phosphorylated peptide, bacterial display (enrichment ratio); higher = better substrate or ligand; peptides without Tyr show the background
c-Src SH2 = assay: as above
SHP2-C SH2 = assay: as above
EPHB2 = EPHB2 (UniProt P29323); assay: phosphorylation enrichment, bacterial display (enrichment ratio); higher = better substrate or ligand; peptides without Tyr show the background
EPHB1 = EPHB1 (UniProt P54762); assay: as above
FGFR3 = FGFR3 (UniProt P22607); assay: as above
MERTK = MERTK (UniProt Q12866); assay: as above
c-Src = assay: as above
c-Abl (mouse) = assay: as above
Hck = Hck (UniProt P08631); assay: as above
Jak2 = Jak2 (UniProt O60674); assay: as above
Fes = Fes (UniProt P07332); assay: as above
Fyn = Fyn (UniProt P06241); assay: as above
Fer (mouse) = assay: as above
AncSZ = assay: as above
FGFR1 = FGFR1 (UniProt P11362); assay: as above
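Wherever SH2 binding enrichment of the phosphorylated peptide, bacterial display is given: peptide library displayed on the E. coli surface as eCPX fusions, selected cells deep-sequenced, score is each peptide's frequency after selection divided by its frequency in the input.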
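Wherever phosphorylation enrichment, bacterial display is given: 11-residue human phosphosite peptides and single-mutation variants displayed on the E. coli surface, counted by deep sequencing, each peptide's frequency after selection divided by its frequency in the unselected input library; frequency after pTyr selection over input frequency; kinase dosed for 20-30% of maximal phosphorylation in three min.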

Hck, sequence (P08631 whole entry, looked up): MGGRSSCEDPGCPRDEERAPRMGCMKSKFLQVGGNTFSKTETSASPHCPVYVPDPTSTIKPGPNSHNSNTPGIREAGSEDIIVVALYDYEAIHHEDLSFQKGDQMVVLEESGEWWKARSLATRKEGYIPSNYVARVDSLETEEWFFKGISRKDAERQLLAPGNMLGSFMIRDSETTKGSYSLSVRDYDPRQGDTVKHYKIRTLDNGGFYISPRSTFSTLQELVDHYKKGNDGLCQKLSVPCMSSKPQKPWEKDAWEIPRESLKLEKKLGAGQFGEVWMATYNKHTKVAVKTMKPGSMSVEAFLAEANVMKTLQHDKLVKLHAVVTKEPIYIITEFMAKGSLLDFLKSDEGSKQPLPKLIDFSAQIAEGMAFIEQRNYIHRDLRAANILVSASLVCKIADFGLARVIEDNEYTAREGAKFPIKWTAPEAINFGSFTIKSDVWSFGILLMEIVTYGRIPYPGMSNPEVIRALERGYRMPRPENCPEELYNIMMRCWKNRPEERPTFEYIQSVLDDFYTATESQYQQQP
EPHB2, sequence (P29323 whole entry, looked up): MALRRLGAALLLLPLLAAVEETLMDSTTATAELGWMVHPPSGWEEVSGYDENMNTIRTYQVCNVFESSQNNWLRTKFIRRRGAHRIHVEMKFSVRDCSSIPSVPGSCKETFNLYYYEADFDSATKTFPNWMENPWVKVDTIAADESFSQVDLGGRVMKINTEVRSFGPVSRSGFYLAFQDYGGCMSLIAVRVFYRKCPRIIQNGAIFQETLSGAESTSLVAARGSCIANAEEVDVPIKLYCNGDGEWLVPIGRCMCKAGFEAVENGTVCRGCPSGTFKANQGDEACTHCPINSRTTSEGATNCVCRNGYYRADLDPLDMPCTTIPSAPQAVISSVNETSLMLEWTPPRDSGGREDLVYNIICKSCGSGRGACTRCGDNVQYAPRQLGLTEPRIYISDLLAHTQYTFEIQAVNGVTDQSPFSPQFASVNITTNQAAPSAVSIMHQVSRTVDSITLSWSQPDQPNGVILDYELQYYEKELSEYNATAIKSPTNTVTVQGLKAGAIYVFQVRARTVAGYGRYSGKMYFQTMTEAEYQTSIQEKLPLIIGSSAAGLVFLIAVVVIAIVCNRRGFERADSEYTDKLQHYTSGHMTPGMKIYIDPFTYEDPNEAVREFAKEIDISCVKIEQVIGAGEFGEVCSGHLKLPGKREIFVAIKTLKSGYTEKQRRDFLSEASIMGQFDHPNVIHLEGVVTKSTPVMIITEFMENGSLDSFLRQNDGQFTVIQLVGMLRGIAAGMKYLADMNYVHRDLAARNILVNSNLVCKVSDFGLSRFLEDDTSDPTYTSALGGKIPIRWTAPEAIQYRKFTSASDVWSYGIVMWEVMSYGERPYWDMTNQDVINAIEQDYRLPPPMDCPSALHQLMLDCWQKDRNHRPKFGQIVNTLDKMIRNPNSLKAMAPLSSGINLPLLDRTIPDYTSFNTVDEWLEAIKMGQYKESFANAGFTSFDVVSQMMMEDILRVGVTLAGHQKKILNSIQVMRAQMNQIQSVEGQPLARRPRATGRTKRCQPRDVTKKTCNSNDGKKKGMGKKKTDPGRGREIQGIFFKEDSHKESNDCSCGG
EPHB1, sequence (P54762 whole entry, looked up): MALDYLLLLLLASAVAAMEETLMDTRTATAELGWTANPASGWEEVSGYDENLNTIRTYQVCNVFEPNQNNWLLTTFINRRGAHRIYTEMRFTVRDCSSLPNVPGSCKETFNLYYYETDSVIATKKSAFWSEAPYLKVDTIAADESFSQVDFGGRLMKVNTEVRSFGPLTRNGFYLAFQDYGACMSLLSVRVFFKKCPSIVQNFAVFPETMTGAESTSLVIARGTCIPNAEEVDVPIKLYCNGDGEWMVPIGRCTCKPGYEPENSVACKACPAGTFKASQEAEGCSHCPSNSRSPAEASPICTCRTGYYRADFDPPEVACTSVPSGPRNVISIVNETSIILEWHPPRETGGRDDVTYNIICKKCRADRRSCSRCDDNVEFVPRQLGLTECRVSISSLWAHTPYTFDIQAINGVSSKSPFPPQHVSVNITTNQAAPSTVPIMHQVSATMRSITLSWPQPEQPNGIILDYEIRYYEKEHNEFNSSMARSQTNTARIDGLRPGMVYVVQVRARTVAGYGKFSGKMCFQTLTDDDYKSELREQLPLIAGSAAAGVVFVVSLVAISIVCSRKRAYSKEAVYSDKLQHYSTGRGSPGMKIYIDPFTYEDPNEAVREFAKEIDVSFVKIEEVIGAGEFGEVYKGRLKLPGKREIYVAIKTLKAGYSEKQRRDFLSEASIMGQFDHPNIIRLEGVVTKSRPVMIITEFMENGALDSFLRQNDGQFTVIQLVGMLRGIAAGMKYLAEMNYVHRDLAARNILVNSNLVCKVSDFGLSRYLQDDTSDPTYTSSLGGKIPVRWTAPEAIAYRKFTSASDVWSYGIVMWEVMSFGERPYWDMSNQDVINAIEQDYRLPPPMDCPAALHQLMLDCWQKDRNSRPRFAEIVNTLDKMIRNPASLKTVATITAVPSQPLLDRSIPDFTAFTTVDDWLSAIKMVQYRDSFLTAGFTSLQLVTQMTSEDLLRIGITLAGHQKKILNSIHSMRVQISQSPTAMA
Fyn, sequence (P06241 whole entry, looked up): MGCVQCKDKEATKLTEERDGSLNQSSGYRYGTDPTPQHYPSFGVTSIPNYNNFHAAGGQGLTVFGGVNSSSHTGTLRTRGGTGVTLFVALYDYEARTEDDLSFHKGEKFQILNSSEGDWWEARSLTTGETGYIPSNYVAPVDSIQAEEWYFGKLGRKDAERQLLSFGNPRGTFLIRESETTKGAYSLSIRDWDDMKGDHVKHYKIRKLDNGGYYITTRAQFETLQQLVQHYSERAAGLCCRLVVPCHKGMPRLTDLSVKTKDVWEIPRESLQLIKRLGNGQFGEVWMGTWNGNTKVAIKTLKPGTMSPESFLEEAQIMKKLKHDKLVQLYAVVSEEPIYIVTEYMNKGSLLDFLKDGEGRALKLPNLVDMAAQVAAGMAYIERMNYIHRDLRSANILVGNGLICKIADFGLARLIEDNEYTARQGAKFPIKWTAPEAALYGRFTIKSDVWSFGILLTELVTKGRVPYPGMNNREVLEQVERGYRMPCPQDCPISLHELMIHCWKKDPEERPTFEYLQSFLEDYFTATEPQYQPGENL
Jak2, sequence (O60674 whole entry, looked up): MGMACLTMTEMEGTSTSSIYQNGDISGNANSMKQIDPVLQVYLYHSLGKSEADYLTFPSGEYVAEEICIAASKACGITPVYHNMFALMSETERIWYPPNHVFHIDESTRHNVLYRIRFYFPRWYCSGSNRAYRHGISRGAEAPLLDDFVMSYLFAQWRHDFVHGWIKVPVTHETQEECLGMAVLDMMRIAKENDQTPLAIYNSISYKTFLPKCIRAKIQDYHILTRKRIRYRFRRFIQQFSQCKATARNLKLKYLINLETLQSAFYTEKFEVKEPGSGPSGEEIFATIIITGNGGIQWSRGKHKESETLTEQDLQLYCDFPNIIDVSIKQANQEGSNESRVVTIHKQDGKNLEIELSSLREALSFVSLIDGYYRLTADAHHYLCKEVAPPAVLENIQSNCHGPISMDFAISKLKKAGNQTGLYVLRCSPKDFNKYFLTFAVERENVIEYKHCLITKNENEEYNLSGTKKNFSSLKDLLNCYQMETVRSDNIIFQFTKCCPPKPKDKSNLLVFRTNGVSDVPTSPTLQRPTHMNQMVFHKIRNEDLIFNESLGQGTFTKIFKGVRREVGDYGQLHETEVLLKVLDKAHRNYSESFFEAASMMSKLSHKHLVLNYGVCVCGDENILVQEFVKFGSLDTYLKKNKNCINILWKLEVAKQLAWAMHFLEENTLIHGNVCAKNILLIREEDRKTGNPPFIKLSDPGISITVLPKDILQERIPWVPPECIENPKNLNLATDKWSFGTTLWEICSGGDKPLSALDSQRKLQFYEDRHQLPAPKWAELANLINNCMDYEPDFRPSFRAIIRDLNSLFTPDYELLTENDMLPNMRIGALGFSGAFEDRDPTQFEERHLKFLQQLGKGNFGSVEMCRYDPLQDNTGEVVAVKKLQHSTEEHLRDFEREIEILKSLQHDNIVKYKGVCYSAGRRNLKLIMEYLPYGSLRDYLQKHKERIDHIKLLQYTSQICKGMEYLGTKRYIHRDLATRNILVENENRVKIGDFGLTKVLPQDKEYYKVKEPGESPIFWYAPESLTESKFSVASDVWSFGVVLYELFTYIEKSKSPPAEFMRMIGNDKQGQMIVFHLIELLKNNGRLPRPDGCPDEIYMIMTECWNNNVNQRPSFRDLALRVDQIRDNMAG
Fes, sequence (P07332 whole entry, looked up): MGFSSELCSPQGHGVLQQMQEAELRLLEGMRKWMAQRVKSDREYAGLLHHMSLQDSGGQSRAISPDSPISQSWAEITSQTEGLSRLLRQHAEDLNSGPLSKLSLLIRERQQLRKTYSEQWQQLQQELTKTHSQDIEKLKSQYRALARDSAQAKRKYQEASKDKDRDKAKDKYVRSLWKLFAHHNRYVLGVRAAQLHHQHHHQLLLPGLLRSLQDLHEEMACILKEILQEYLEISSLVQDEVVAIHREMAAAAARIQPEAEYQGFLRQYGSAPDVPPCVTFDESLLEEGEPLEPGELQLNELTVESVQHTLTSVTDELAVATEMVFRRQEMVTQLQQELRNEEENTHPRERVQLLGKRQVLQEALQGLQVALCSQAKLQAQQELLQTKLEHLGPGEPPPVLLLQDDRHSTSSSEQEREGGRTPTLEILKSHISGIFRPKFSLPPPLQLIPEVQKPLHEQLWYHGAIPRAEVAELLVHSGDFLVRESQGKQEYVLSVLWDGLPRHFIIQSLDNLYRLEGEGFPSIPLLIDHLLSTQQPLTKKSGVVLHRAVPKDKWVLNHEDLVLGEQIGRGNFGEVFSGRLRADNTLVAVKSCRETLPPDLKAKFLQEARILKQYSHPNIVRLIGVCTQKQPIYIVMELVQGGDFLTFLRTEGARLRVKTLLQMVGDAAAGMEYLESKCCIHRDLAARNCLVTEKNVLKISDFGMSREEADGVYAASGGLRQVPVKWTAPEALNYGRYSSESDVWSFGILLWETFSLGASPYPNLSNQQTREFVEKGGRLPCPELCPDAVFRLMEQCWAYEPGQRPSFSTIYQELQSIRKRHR

| Sequence | SH2 binding enrichment (Grb2 SH2) | SH2 binding enrichment (c-Src SH2) | SH2 binding enrichment (SHP2-C SH2) | phosphorylation enrichment (EPHB2) | phosphorylation enrichment (EPHB1) | phosphorylation enrichment (FGFR3) | phosphorylation enrichment (MERTK) | phosphorylation enrichment (c-Src) | phosphorylation enrichment (c-Abl (mouse)) | phosphorylation enrichment (Hck) | phosphorylation enrichment (Jak2) | phosphorylation enrichment (Fes) | phosphorylation enrichment (Fyn) | phosphorylation enrichment (Fer (mouse)) | phosphorylation enrichment (AncSZ) | phosphorylation enrichment (FGFR1) |
| --- | --- | --- | --- | --- | --- | --- | --- | --- | --- | --- | --- | --- | --- | --- | --- | --- |
| ERIELYELDKK [PMM2_Y145_F144L] | 0.803 | 0.487 | 0.635 | 0.589 | 0.664 | 0.673 | 0.568 | 0.615 | 0.641 | 0.574 | 0.887 | 1.1 | 0.586 | 0.506 | 1.18 | 0.481 |
| ERNAHYRTPKI [PTK2B_Y699_R698H] | 0.707 | 0.521 | 0.611 | 0.561 | 0.583 | 0.473 | 0.37 | 0.387 | 0.615 | 0.332 | 0.559 | 0.495 | 0.367 | 0.424 | 0.586 | 0.524 |
| ERNARYRTPKI [PTK2B_Y699] | 0.599 | 0.428 | 0.71 | 0.276 | 0.314 | 0.369 | 0.697 | 0.351 | 0.527 | 0.351 | 0.409 | 0.515 | 0.33 | 0.313 | 0.562 | 0.316 |
| ERTIEYLEEVV [HADHA_Y239_A244V] | 0.836 | 0.451 | 0.594 | 0.615 | 0.559 | 0.712 | 0.386 | 0.487 | 0.739 | 0.498 | 1.07 | 1.17 | 0.466 | 0.523 | 1.18 | 0.55 |
| ESFCLYPPVPQ [CYP4B1_Y377_R375C] | 0.895 | 0.56 | 0.842 | 0.595 | 0.805 | 0.647 | 0.447 | 0.477 | 0.739 | 0.484 | 0.906 | 1.12 | 0.459 | 0.582 | 0.874 | 0.539 |
| ETAENYLGHTA [HSPA9_Y181] | 0.972 | 0.497 | 0.588 | 0.652 | 0.43 | 0.523 | 0.503 | 0.414 | 0.559 | 0.47 | 0.622 | 0.865 | 0.442 | 0.443 | 0.858 | 0.486 |
| ETKKQYNSFTY [TMED3_Y85_D86N] | 1.1 | 1.03 | 0.704 | 0.434 | 0.436 | 0.455 | 0.463 | 0.491 | 0.435 | 0.423 | 0.54 | 0.753 | 0.592 | 0.434 | 0.617 | 0.496 |
| ETKRPYTVILI [SBDS_Y128] | 0.838 | 1.05 | 0.877 | 0.527 | 0.57 | 0.722 | 0.479 | 0.458 | 0.825 | 0.481 | 1.01 | 1.15 | 0.457 | 1.16 | 1.06 | 0.582 |
| ETLLYYGYRRS [POR_Y564_C566Y] | 0.756 | 0.474 | 1 | 1.06 | 1.21 | 1.18 | 6.93 | 10.7 | 9.52 | 14.6 | 5.24 | 0.806 | 9.27 | 0.766 | 1.21 | 1.3 |
